According to paper doi:10.1101/2025.08.21.671625, “α-catenin phosphorylation is actomyosin-sensitive and required for epithelial barrier functions through Afadin” (bioRxiv, 2025):

Target: T1, full length αE-cat R551A (human, UniProt P35221 1-906, R551A)
T1 construct: αE-catenin (CTNNA1), human, full length, M3-domain salt-bridge mutant R551A; also called GST-αE-catenin (human) R551A
T1 sequence (looked up): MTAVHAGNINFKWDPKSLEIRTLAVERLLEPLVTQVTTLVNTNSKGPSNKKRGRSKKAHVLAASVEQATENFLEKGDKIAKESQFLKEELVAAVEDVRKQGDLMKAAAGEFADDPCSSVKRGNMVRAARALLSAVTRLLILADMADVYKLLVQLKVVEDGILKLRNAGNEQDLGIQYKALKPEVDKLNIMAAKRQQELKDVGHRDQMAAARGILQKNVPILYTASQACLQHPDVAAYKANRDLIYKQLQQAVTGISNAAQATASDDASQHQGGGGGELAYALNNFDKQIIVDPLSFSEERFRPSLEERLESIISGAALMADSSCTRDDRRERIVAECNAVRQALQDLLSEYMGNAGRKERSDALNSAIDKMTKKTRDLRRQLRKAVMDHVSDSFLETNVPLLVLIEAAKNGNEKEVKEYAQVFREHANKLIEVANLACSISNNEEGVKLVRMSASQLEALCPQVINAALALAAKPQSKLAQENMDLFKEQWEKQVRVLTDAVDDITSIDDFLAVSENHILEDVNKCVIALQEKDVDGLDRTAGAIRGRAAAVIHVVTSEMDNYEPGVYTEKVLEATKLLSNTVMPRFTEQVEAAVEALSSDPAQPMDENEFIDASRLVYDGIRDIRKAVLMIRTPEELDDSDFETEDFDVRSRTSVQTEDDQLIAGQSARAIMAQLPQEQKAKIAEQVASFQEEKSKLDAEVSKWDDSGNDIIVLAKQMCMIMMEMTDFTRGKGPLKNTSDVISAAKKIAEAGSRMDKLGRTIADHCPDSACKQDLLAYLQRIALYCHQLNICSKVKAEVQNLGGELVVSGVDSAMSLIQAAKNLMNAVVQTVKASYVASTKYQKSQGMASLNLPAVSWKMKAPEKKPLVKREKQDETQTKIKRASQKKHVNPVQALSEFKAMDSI
Test: pull-down; GST-Afdn-CC-ABR (or GST control) pre-bound to glutathione resin, mixed with α-cat prey proteins, washed, eluted with free glutathione; interaction strength assessed by Coomassie staining
Details: both partners purified

B1: GST-Afadin-Coiled-coil α-cat binding region (Afadin-CC-ABR; amino acids 1391–1449) (domain or fragment, rat)
chain: MDLPLPPPPANQAAPQSAQVAAAERKKREEHQRWYEKEKARLEEERERKRREQERKLGQ
notes: cDNA from the Takai lab; also called GST-Afadin-CC-ABR; GST-Afdn-CC-ABR; not shown: GST, N-terminal, kept
- binding result: binds
